Measured values published in PMC4470706 (Journal of nuclear medicine : official publication, Society …, 2015).

Legend:
in vivo = assay: in vivo; design: species or system mice; details: male, athymic nude (outbred) CrTac:NCr-Foxn1nu, mouse, iv, 11.1 MBq, total radioactivity, Activity concentration
PC-3 tumor–bearing mice = details: mouse, in vivo

Compound: CC(C)C[C@H](NC(=O)C[C@H](O)[C@H](CC(C)C)NC(=O)[C@H](Cc1c[nH]cn1)NC(=O)CNC(=O)[C@@H](NC(=O)[C@H](C)NC(=O)[C@H](Cc1c[nH]c2ccccc12)NC(=O)[C@H](CCC(N)=O)NC(=O)[C@@H](Cc1ccccc1)NC(=O)CCOCCOCCOCCOCCNC(=O)CN1CCN(CC(=O)O)CCN(CC(=O)O)CCN(CC(=O)O)CC1)C(C)C)C(N)=O [^90Y-DOTA-AR, metal not drawn]
- tissue uptake at 1 h (in vivo; PC-3 tumor): 3.62 ± 0.95 %ID/g
- tissue uptake at 4 h (in vivo; PC-3 tumor): 2.92 ± 0.57 %ID/g
- tissue uptake at 24 h (in vivo; PC-3 tumor): 0.45 ± 0.04 %ID/g
- tissue uptake at 48 h (in vivo; PC-3 tumor): 0.1 ± 0.05 %ID/g
- tissue uptake at 1 h (in vivo; kidney): 1.76 ± 0.61 %ID/g
- tissue uptake at 4 h (in vivo; kidney): 0.78 ± 0.14 %ID/g
- tissue uptake at 24 h (in vivo; kidney): 0.17 ± 0.02 %ID/g
- tissue uptake at 48 h (in vivo; kidney): 0.07 ± 0.01 %ID/g
- tissue uptake at 1 h (in vivo; liver): 0.21 ± 0.05 %ID/g
- tissue uptake at 4 h (in vivo; liver): 0.12 ± 0.06 %ID/g
- tissue uptake at 24 h (in vivo; liver): 0.04 ± 0.01 %ID/g
- tissue uptake at 48 h (in vivo; liver): 0.02 %ID/g
- Radiation dose to kidney (PC-3 tumor–bearing mice): 0.06 ± 0.01 Gy/MBq
- Radiation dose to kidney, range (PC-3 tumor–bearing mice): 0.05–0.08 Gy/MBq
